Test results from patent US6716811B1, “Compounds having affinity for the granulocyte-colony stimulating factor receptor (G-CSFR) and associated uses” (Affymax, Inc., priority 2000, dated 2004).
Where a SMILES comes first, the peptide text is derived from it. Where no end group is shown, it is not given here. MBP = maltose binding protein

Legend:
[1] = system: Parental Ba/F3 cells; experiment: Proliferation of parental Ba/F3 cells; assay type: cell-based, Murine
[2] = target: T1, human thrombopoietin receptor (Homo sapiens, UniProt P40238); experiment: Proliferation of Ba/F3 cells expressing the human thrombopoietin receptor; assay type: cell-based
T1 construct: expressed in transfected cells; host or cells: Ba/F3 cells
T1 sequence (P40238 26-635): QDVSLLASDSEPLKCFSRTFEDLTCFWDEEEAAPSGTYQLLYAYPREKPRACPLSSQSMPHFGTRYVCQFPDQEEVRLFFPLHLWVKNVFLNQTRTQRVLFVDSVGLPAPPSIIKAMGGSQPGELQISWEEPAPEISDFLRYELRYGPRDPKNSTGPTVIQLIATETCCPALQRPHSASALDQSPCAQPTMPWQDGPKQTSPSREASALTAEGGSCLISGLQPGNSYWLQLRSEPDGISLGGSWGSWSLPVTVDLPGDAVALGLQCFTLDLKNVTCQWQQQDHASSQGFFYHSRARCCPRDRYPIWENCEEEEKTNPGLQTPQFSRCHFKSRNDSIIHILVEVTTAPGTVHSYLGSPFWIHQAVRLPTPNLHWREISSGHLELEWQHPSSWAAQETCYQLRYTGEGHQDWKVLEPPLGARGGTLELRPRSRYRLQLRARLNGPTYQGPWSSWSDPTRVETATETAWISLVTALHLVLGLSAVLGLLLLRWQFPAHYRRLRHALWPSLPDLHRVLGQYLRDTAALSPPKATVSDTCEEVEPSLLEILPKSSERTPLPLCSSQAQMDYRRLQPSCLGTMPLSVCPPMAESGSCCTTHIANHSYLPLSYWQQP
Description: (§1) This is true for most of the MBP fusions tested. Presumably the fusion protein is dimerized through intermolecular disulfide bonds between cysteine residues present in the peptide sequence.

[3] = target: T2, G-CSFR (Homo sapiens, UniProt Q99062); experiment: Ba/F3 G-CSFR cell proliferation assay; assay type: cell-based; parameters: expression vectors encoding the full length human G-CSFR; expressed in transfected cells; host or cells: murine IL-3 dependent Ba/F3 cells; conditions: MBP fusion protein
T2 sequence (Q99062 25-836): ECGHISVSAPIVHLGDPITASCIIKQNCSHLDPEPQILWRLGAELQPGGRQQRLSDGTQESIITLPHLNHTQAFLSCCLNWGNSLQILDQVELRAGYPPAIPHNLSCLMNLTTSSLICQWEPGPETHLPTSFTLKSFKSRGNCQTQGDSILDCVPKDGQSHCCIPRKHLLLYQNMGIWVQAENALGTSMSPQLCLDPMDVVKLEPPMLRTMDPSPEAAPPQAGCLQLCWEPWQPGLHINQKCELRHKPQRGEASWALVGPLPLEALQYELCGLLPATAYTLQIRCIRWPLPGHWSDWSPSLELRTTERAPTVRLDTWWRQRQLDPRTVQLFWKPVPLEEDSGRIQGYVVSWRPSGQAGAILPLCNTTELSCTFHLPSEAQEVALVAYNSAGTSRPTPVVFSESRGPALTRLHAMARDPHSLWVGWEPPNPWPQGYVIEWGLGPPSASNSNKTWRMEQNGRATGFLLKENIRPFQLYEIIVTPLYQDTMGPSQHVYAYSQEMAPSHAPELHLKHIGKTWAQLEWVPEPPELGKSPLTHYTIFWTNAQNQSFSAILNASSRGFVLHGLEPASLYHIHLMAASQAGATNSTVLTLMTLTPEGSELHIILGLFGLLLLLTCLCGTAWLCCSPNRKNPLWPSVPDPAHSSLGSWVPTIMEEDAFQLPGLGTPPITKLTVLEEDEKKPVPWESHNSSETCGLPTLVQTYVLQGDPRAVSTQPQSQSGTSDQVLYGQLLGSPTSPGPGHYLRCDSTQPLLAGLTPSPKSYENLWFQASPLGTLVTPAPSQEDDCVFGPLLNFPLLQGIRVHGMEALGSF
Protocol: (§2) The bioactivity of selected peptides of the invention was measured in cell-based assays. […] Murine IL-3 dependent Ba/F3 cells were co-transfected with expression vectors encoding the full length human G-CSFR and a luciferase reporter gene controlled by the fos promoter.
as §1

[4] = target: T2, G-CSFR; experiment: Ba/F3 G-CSFR reporter cell (fos promoter/luciferase) assay; assay type: cell-based; parameters: expression vectors encoding the full length human G-CSFR; expressed in transfected cells; host or cells: murine IL-3 dependent Ba/F3 cells
Protocol: as §2
Reporter cell assays were performed on the above cell line using peptides of the invention. The cells were maintained in complete RPMI-164Q media containing 10% fetal calf serum, 2 mM L-glutamine, 1X antibiotic-antimycotic solution (Life Technologies), and 10% WEHI-3 conditioned media (source of murine IL-3). For reporter assays, cells were starved overnight in medium which lacks WEHI-3 to reduce luciferase expression to background levels. The cells were then washed twice in PBS, resuspended in media which lacks WEHI-3 conditioned media, and added to wells of a 96-well microtiter plate containing dilutions of peptide or G-CSF at 5×10^4 cells/well. Plates were incubated for 2 hours at 37° C. in a humidified 5% CO2 incubator and luciferase activity was measured by the addition of luciferin (LucLite—Packard Biosciences) to each well. The plates were read in a TopCount (Wallac) microtiter plate luminometer.
To measure the ability of selected peptides of the invention to block G-CSF mediated receptor activation, dilutions of peptide were combined with Ba/F3 G-CSFR reporter cells as described above. After a 30-minute incubation at 37° C., G-CSF was added to each well. The cells were incubated for 2 hours at 37° C. and the amount of luciferase produced was measured as described above.
Ligand mediated G-CSF receptor activation in these cells results in the expression of luciferase, providing a detectable biological signal.
A biosassay was used to measure the potency of AF15846 and other possible G-CSF receptor antagonists. This bioassay utilizes a Ba/F3 cell line containing the rhGCSF receptor and a c-fos promoter/luciferase gene construct (Ba/F3/rhGCSF-R/pFos-1cf). Competent binding of a ligand to the receptor results in expression of lucifierase as the biological readout.

[5] = Incubation of oxidized peptide at 37° C., HPLC pattern; assay type: physicochemical; conditions: pH 6.0 or pH 7.5, clean profiles only at pH 4.1
Protocol: The oxidized peptide was also reacted with N-ethylmaleimide (NEM) at 37° C. for 1 hour in 100 mM ammonium acetate, pH 4.1 to see if any free Cys residues remained in the molecule. If this were the case, treatment with the alkylating reagent would result in a shift of the HPLC retention time. Upon incubation with NEM, no such shift was seen (FIG. 7). In contrast, when the oxidized peptide was incubated with the disulfide specific reducing agent TCEP, also in ammonium acetate, a shift to a later retention time, consistent with reduced peptide, was found. The reduced peptide was modified with NEM to produce a peptide that eluted even later than the reduced form.
It was necessary to drop to pH 4.1 to obtain clean profiles upon NEM treatment.

[6] = target: T3, G-CSF receptor (Homo sapiens, UniProt Q99062); experiment: 125I-G-CSF competition binding assay of oxidized AF15846 fractions; conditions: HPLC fractions of oxidized AF15846; FIG. 4
T3 sequence (Q99062 25-836): T2 sequence (Q99062 25-836)
Description: (§3) Several fractions containing oxidized AF15846 resulting from treatment under the conditions described above were collected subjected to testing in two assays: an ^125I-G-CSF competition binding assay and an ELISA format competitive G-CSF receptor-binding assay.

[7] = target: T3, G-CSF receptor; experiment: ELISA format competitive G-CSF receptor-binding assay; conditions: HPLC fractions of oxidized AF15846
Description: as §3

[8] = system: NFS-60 cells; experiment: Cell-based assays using NFS-60 cells; parameters: species or system Murine
[9] = Stability in cell culture medium (NFS-60-conditioned medium); assay type: in vitro ADME; conditions: overnight incubation in NFS-60-conditioned medium
[10] = target: T2, G-CSFR; parameters: made in house; conditions: read-out: observed affinity for its receptor; cited from earlier work

MBP fusion protein of Example 78: Example 78 peptide fused to the carboxy-terminus of the maltose binding protein (MBP); monomeric and dimeric species ({MBP}-LLDICELKLQECARRCN; cysteine pairing not given here; also: monomeric and dimeric species)
proliferation in response to fusion protein [1]: did not proliferate | proliferation in response to fusion protein [2]: did not proliferate | concentration of maximal activity in Ba/F3 G-CSFR cell proliferation assay [3]: 100 nM

CC[C@H](C)[C@H](NC(=O)[C@H](CC(=O)O)NC(=O)[C@H](CC(C)C)NC(=O)[C@@H](N)CC(C)C)C(=O)N[C@@H](CS)C(=O)N[C@@H](CCC(=O)O)C(=O)N[C@@H](CC(C)C)C(=O)N[C@@H](CCCCN)C(=O)N[C@@H](CC(C)C)C(=O)N[C@@H](CCC(N)=O)C(=O)N[C@@H](CCC(=O)O)C(=O)N[C@@H](CS)C(=O)N[C@@H](C)C(=O)N[C@@H](CCCNC(=N)N)C(=O)N[C@@H](CCCNC(=N)N)C(=O)N[C@@H](CS)C(=O)N[C@@H](CC(N)=O)C(=O)O [Example 53, LLDICELKLQECARRCN] (H-LLDICELKLQECARRCN-OH; N-terminus and C-terminus assumed)
effect on G-CSF dose-response curve (luciferase) ([4]; Ba/F3/rhGCSF-R/pFos-lcf, FIGS. 10A, 10B, 11): dose-response curve shifting to higher concentrations | effect on G-CSF response (luciferase) ([4]; increasing concentrations of peptide added before G-CSF, FIG. 3): G-CSFR antagonist

Tris-oxidized species: active oxidized dimer of AF15846 formed in 50 mM Tris, pH 8 (LLDICELKLQECARRCN; also: homodimer of two chains joined by three parallel interchain disulfides, disulfide at 5, other end not in the chain, disulfide at 12, other end not in the chain, disulfide at 16, other end not in the chain)
stability on incubation at higher pH [5]: disulfide scrambling and/or degradation | activity of fractions in 125I-G-CSF competition binding assay [6]: highest activity | activity of fractions in ELISA format competitive G-CSF receptor-binding assay [7]: highest activity

EQSNSGWVWV-NH2 [Example 74]
antagonist activity in cell-based assays [8]: antagonist activity at high concentrations | stability in cell culture medium [9]: no loss of activity was observed

B1: Granulocyte-colony stimulating factor (protein)
chain: TPLGPASSLPQSFLLKCLEQVRKIQGDGAALQEKLCATYKLCHPEELVLLGHSLGIPWAPLSSCPSQALQLAGCLSQLHSGLFLYQGLLQALEGISPELGPTLDTLQLDVADFATTIWQQMEELGMAPALQPTQGAMPAFASAFQRRAGGVLVASHLQSFLEVSYRVLRHLAQP
Kd [10]: ~0.1 nM | luciferase response of reporter cells ([4]; ligand alone, FIG. 2): dose dependent manner
